Data reported in patent publication US20240067696A1 (ZEALAND PHARMA A S, published 2024).
Non-standard residues stand in square brackets, D forms with d. Aib = CC(C)(N)C(=O)O

B1: Compound 22 (peptide)
peptide: H-HSQ[dA]TFTSDYSKYLD[Aib]ARAESFVKWLEST-OH
SMILES: CC(C)C[C@H](NC(=O)[C@H](Cc1c[nH]c2ccccc12)NC(=O)[C@H](CCCCN)NC(=O)[C@@H](NC(=O)[C@H](Cc1ccccc1)NC(=O)[C@H](CO)NC(=O)[C@H](CCC(=O)O)NC(=O)[C@H](C)NC(=O)[C@H](CCCNC(=N)N)NC(=O)[C@H](C)NC(=O)C(C)(C)NC(=O)[C@H](CC(=O)O)NC(=O)[C@H](CC(C)C)NC(=O)[C@H](Cc1ccc(O)cc1)NC(=O)[C@H](CCCCN)NC(=O)[C@H](CO)NC(=O)[C@H](Cc1ccc(O)cc1)NC(=O)[C@H](CC(=O)O)NC(=O)[C@H](CO)NC(=O)[C@@H](NC(=O)[C@H](Cc1ccccc1)NC(=O)[C@@H](NC(=O)[C@@H](C)NC(=O)[C@H](CCC(N)=O)NC(=O)[C@H](CO)NC(=O)[C@@H](N)Cc1c[nH]cn1)[C@@H](C)O)[C@@H](C)O)C(C)C)C(=O)N[C@@H](CCC(=O)O)C(=O)N[C@@H](CO)C(=O)N[C@H](C(=O)O)[C@@H](C)O
B2: Compound 20 (peptide)
peptide: H-HAQGTFTSDYSKYLD[Aib]ARAESFVKWLEST-OH
SMILES: CC(C)C[C@H](NC(=O)[C@H](Cc1c[nH]c2ccccc12)NC(=O)[C@H](CCCCN)NC(=O)[C@@H](NC(=O)[C@H](Cc1ccccc1)NC(=O)[C@H](CO)NC(=O)[C@H](CCC(=O)O)NC(=O)[C@H](C)NC(=O)[C@H](CCCNC(=N)N)NC(=O)[C@H](C)NC(=O)C(C)(C)NC(=O)[C@H](CC(=O)O)NC(=O)[C@H](CC(C)C)NC(=O)[C@H](Cc1ccc(O)cc1)NC(=O)[C@H](CCCCN)NC(=O)[C@H](CO)NC(=O)[C@H](Cc1ccc(O)cc1)NC(=O)[C@H](CC(=O)O)NC(=O)[C@H](CO)NC(=O)[C@@H](NC(=O)[C@H](Cc1ccccc1)NC(=O)[C@@H](NC(=O)CNC(=O)[C@H](CCC(N)=O)NC(=O)[C@H](C)NC(=O)[C@@H](N)Cc1c[nH]cn1)[C@@H](C)O)[C@@H](C)O)C(C)C)C(=O)N[C@@H](CCC(=O)O)C(=O)N[C@@H](CO)C(=O)N[C@H](C(=O)O)[C@@H](C)O
B3: Compound 23 (peptide)
peptide: H-HSQGTFTSDVSKYLD[Aib]ARAESFVKWLEST-OH
SMILES: CC(C)C[C@H](NC(=O)[C@H](Cc1c[nH]c2ccccc12)NC(=O)[C@H](CCCCN)NC(=O)[C@@H](NC(=O)[C@H](Cc1ccccc1)NC(=O)[C@H](CO)NC(=O)[C@H](CCC(=O)O)NC(=O)[C@H](C)NC(=O)[C@H](CCCNC(=N)N)NC(=O)[C@H](C)NC(=O)C(C)(C)NC(=O)[C@H](CC(=O)O)NC(=O)[C@H](CC(C)C)NC(=O)[C@H](Cc1ccc(O)cc1)NC(=O)[C@H](CCCCN)NC(=O)[C@H](CO)NC(=O)[C@@H](NC(=O)[C@H](CC(=O)O)NC(=O)[C@H](CO)NC(=O)[C@@H](NC(=O)[C@H](Cc1ccccc1)NC(=O)[C@@H](NC(=O)CNC(=O)[C@H](CCC(N)=O)NC(=O)[C@H](CO)NC(=O)[C@@H](N)Cc1c[nH]cn1)[C@@H](C)O)[C@@H](C)O)C(C)C)C(C)C)C(=O)N[C@@H](CCC(=O)O)C(=O)N[C@@H](CO)C(=O)N[C@H](C(=O)O)[C@@H](C)O
B4: Compound 12 (peptide)
peptide: H-HSQGTFTSDYSKYLD[Aib]ARAEDFVKWLEST-OH
SMILES: CC(C)C[C@H](NC(=O)[C@H](Cc1c[nH]c2ccccc12)NC(=O)[C@H](CCCCN)NC(=O)[C@@H](NC(=O)[C@H](Cc1ccccc1)NC(=O)[C@H](CC(=O)O)NC(=O)[C@H](CCC(=O)O)NC(=O)[C@H](C)NC(=O)[C@H](CCCNC(=N)N)NC(=O)[C@H](C)NC(=O)C(C)(C)NC(=O)[C@H](CC(=O)O)NC(=O)[C@H](CC(C)C)NC(=O)[C@H](Cc1ccc(O)cc1)NC(=O)[C@H](CCCCN)NC(=O)[C@H](CO)NC(=O)[C@H](Cc1ccc(O)cc1)NC(=O)[C@H](CC(=O)O)NC(=O)[C@H](CO)NC(=O)[C@@H](NC(=O)[C@H](Cc1ccccc1)NC(=O)[C@@H](NC(=O)CNC(=O)[C@H](CCC(N)=O)NC(=O)[C@H](CO)NC(=O)[C@@H](N)Cc1c[nH]cn1)[C@@H](C)O)[C@@H](C)O)C(C)C)C(=O)N[C@@H](CCC(=O)O)C(=O)N[C@@H](CO)C(=O)N[C@H](C(=O)O)[C@@H](C)O
B5: Compound 15 (peptide)
peptide: H-HSQGTFTSDYSKYLD[Aib]ARAESFVKWLEST-OH
SMILES: CC(C)C[C@H](NC(=O)[C@H](Cc1c[nH]c2ccccc12)NC(=O)[C@H](CCCCN)NC(=O)[C@@H](NC(=O)[C@H](Cc1ccccc1)NC(=O)[C@H](CO)NC(=O)[C@H](CCC(=O)O)NC(=O)[C@H](C)NC(=O)[C@H](CCCNC(=N)N)NC(=O)[C@H](C)NC(=O)C(C)(C)NC(=O)[C@H](CC(=O)O)NC(=O)[C@H](CC(C)C)NC(=O)[C@H](Cc1ccc(O)cc1)NC(=O)[C@H](CCCCN)NC(=O)[C@H](CO)NC(=O)[C@H](Cc1ccc(O)cc1)NC(=O)[C@H](CC(=O)O)NC(=O)[C@H](CO)NC(=O)[C@@H](NC(=O)[C@H](Cc1ccccc1)NC(=O)[C@@H](NC(=O)CNC(=O)[C@H](CCC(N)=O)NC(=O)[C@H](CO)NC(=O)[C@@H](N)Cc1c[nH]cn1)[C@@H](C)O)[C@@H](C)O)C(C)C)C(=O)N[C@@H](CCC(=O)O)C(=O)N[C@@H](CO)C(=O)N[C@H](C(=O)O)[C@@H](C)O

molecular target: human glucagon receptor (human, UniProt P47871 26-477); assay: cell-based or functional assay
Sequence (P47871 26-477): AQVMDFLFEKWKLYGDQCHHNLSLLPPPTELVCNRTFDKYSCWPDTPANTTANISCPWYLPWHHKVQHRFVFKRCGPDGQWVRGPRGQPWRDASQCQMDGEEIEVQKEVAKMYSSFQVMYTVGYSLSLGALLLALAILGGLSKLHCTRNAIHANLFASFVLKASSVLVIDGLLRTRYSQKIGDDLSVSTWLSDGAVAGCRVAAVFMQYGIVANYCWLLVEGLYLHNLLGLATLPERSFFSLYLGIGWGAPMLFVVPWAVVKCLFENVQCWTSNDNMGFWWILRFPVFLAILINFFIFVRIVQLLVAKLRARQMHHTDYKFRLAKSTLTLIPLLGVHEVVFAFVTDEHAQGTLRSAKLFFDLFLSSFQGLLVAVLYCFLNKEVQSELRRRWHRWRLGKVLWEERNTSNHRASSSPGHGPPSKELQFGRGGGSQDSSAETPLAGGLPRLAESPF

Row | GCG-R EC50 in vitro [nM] (cAMP, AlphaScreen, HEK293 cells expressing human Glucagon-R) | Binder
1 | 0.024 nM | B1
2 | 0.32 nM | H-HSQGTFTSDYSKYLDSARAEDFVSWLEST-OH [Compound 10]
3 | 0.026 nM | H-HSQGTFTSDYSKYLDKRRAEDFVSWLEST-OH [Compound 18]
4 | 0.24 nM | B2
5 | 0.07 nM | H-HSQGTFTSDYSKYLDSARAEDFVKWLES-OH [Compound 13]
6 | 0.16 nM | B3
7 | 0.11 nM | H-HSQGTFTSDLSKYLDSARAEDFVKWLEST-OH [Compound 11]
8 | 0.054 nM | H-HSQGTFTSDYSKYLDVARAESFVKWLEST-OH [Compound 19]
9 | 0.029 nM | H-HSQGTFTSDYSKYLDLARAEDFVKWLEST-OH [Compound 17]
10 | 0.39 nM | H-HSQGTFTSDYSKYLESARAESFVKWLEST-OH [Compound 16]
11 | 0.03 nM | B4
12 | 0.15 nM | H-HSQGTFTSDYSKYLDEARAEDFVKWLEST-OH [Compound 14]
13 | 0.03 nM | B5
14 | 0.03 nM | H-HSQGTFTSDYSKYLDSARAEEFVKWLEST-OH [Compound 9]
15 | 0.064 nM | H-HSQGTFTSDYSKYLDSARAESFVKWLEST-OH [Compound 1]
